Source: patent publication US20230340152A1 (published 2023)

T1: Human CD73 on cells (MDA-MB-231, Jurkat CD73 knock-in, NCI-H322) (human, UniProt P21589 27-549)
T1 construct: GPI-anchored native protein; also called native human CD73
T1 sequence: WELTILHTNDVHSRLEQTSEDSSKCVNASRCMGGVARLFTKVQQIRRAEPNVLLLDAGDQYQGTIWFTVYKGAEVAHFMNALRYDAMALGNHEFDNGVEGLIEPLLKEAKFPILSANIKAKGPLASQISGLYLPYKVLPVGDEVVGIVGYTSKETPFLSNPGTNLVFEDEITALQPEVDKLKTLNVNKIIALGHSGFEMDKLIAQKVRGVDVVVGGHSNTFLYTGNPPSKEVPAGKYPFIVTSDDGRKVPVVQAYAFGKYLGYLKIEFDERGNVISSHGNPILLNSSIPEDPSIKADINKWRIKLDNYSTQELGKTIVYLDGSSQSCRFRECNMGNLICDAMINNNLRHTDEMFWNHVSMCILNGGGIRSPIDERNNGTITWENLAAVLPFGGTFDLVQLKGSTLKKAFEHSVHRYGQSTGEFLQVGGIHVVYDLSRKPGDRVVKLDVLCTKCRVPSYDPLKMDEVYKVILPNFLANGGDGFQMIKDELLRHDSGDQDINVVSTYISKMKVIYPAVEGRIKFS


Experiments:
[1] = biological target: T1, Human CD73 on cells (MDA-MB-231, Jurkat …); assay: FACS on MDA-MB-231 cells, vs CD730002SGMY
[2] = biological target: T1, Human CD73 on cells (MDA-MB-231, Jurkat …); assay: cell-based or functional assay

FACS signal, fold improvement over parental antibody [1] [fold]	FabZAP internalization, EC50, MDA-MB-231 [2] [pM]	Binder	FabZAP internalization, maximum toxicity, MDA-MB-231 [2] [%]
1.5		CD730002SGMY CDRL2 T52S (Fab, V domains shown, format not clearly stated) VH: not shown VL: QSVLTQPPSVSVSPGQTASITCSGDKVGDKYASWYQQKPGQSPVLVIYEDSKRPSGIPERFSGSNSGNTATLTISGTQAMDEADYYCQAWDTSFWVFGGGTKLTVLL	
1.2		CD730002SGMY CDRL2 R54Y (Fab, V domains shown, format not clearly stated) VH: not shown VL: QSVLTQPPSVSVSPGQTASITCSGDKVGDKYASWYQQKPGQSPVLVIYEDTKYPSGIPERFSGSNSGNTATLTISGTQAMDEADYYCQAWDTSFWVFGGGTKLTVLV	
	92.5	Phen0203 hIgG1 (antibody, V domains shown) VH: EVQLVQSGGGVVQPGRSLRLSCAASGFRFSDFAMHWVRQAPGKGLEWVAGISYDGGNKYYADSVKGRFTISRDNSNNTLYLQMNSLRAEDTAVYYCAKDHGYSGYYGHLDYWGRGTLVTVSS VL: not shown	91
1.3		CD730002SGMY CDRH2 G65R (Fab, V domains shown, format in the FACS read-out not clearly stated) VH: EVQLLESGGGLVQPGGSLRLSCAASGFTFSSYAMSWVRQAPGKGLEWVSAISGSGGSTYYADSVKRRFTISRDNSKNTLYLQMNSLRAEDTAVYYCARDKGYYWYMDVWGQGTMVTVSS VL: QSVLTQPPSVSVSPGQTASITCSGDKVGDKYASWYQQKPGQSPVLVIYEDTKRPSGIPERFSGSNSGNTATLTISGTQAMDEADYYCQAWDTSFWVFGGGTKLTVL	
1.2		CD730002SGMY CDRH1 Y32V (Fab, V domains shown, format in the FACS read-out not clearly stated) VH: EVQLLESGGGLVQPGGSLRLSCAASGFTFSSVAMSWVRQAPGKGLEWVSAISGSGGSTYYADSVKGRFTISRDNSKNTLYLQMNSLRAEDTAVYYCARDKGYYWYMDVWGQGTMVTVSS VL: QSVLTQPPSVSVSPGQTASITCSGDKVGDKYASWYQQKPGQSPVLVIYEDTKRPSGIPERFSGSNSGNTATLTISGTQAMDEADYYCQAWDTSFWVFGGGTKLTVL	
1.3		CD730002SGMY CDRH2 A60G (Fab, V domains shown, format in the FACS read-out not clearly stated) VH: EVQLLESGGGLVQPGGSLRLSCAASGFTFSSYAMSWVRQAPGKGLEWVSAISGSGGSTYYGDSVKGRFTISRDNSKNTLYLQMNSLRAEDTAVYYCARDKGYYWYMDVWGQGTMVTVSS VL: QSVLTQPPSVSVSPGQTASITCSGDKVGDKYASWYQQKPGQSPVLVIYEDTKRPSGIPERFSGSNSGNTATLTISGTQAMDEADYYCQAWDTSFWVFGGGTKLTVL	
1.5		CD730002SGMY CDRL2 P55H (Fab, V domains shown, format not clearly stated) VH: not shown VL: QSVLTQPPSVSVSPGQTASITCSGDKVGDKYASWYQQKPGQSPVLVIYEDTKRHSGIPERFSGSNSGNTATLTISGTQAMDEADYYCQAWDTSFWVFGGGTKLTVL	
